Data on 2 molecules can be found in patent publication US20230235029A1 (INTEGRATED BIOTHERAPEUTICS, published 2023).

Experiment [1] addresses Marburg virus Musoke GP on rVSV pseudotype (VSV-MARV Musoke GP) (Marburg virus, Musoke strain) (UniProt P35253).
Experiment [2] addresses Marburg virus Angola GP on rVSV pseudotype (Marburg virus, Angola strain) (UniProt Q1PD50).
Experiment [3] has as its target RAVV GP on rVSV pseudotype (VSV-MARV RAVV GP) (Ravn virus) (UniProt Q1PDC7).
Experiment [4] has as its target T1, Marburg virus Musoke GP on rVSV pseudotype (VSV-MARV Musoke GP) (Marburg virus, Musoke strain, UniProt P35253 19-681).
T1 sequence: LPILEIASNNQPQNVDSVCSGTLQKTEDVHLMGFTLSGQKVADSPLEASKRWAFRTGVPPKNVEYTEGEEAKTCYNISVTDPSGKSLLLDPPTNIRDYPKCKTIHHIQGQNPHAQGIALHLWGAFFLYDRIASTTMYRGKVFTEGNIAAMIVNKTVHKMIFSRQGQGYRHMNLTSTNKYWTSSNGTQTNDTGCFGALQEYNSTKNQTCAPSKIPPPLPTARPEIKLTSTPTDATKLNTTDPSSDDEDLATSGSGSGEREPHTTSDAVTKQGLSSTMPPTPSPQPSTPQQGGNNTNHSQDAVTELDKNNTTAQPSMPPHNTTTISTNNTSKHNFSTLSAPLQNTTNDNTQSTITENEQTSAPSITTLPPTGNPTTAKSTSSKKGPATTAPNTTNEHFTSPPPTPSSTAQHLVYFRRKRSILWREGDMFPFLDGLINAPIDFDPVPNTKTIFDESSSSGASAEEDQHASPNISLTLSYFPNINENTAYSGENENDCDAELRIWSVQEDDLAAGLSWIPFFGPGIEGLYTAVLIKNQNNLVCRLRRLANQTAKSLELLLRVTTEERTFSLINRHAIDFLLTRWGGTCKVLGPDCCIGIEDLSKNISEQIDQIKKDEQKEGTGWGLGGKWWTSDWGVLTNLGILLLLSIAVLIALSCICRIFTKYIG
Nature of the experiment: cell-based or functional assay.

What is called EC50 (read off the curve) is the concentration that produces a half-maximal response. A higher EC50 (read off the curve) goes with a need for much substance.

For the molecule MR191 (antibody), the NT50 in experiment [1] is 2.77 µg/mL; in experiment [2] it was 3.81 µg/mL; in experiment [3] it was 7 µg/mL.

B1: R217 (antibody, V domains shown)
VH: QVQLQESGPGLVKPSETLSLTCAVSGASISSNWWNWIRQPPGRGLEWLGEIYGYSGSTSYNPYLKSRVTISKDASRNQISLKLNAVTAADTAVYYCARDPLNQDAFDFWGQGLRVTVSS
VL: QSALTQPPSVSGSPGQSVTISCTGTSSDIGGYDYVSWYQHHPGKAPKLMIYDVNERPAGVSDRFSGSKSGNTASLTISGLQAEDEADYFCSSYAGRKTLLFGGGTRLTVL
As for B1, the “EC50 (read off the curve)” value in experiment [4] is about 0.3 µg/mL.
